Test results taken from publication PMC5614898.

Molecular target: T1, FOXA2-DBD without wing 2 (human, UniProt Q9Y261 157-239)
T1 sequence: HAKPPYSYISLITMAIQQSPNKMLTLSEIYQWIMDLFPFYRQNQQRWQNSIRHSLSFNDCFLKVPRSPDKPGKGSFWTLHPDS
Test: ITC

B1: DBE2 (Daf-16 family binding element 2) (dsDNA)
DNA 1: TGCAAAATGTAAACAAGACT
DNA 2: AGTCTTGTTTACATTTTGCA
How did the Kd turn out when B1 was run?
Its Kd is 3.5 ± 0.3 µM.
